Assay [1] has as its target T1, human CD40 expressed on cells (Ramos, T24, Hs 766T, Capan-2) (human, UniProt P25942 21-277).
T1 construct: whole, on cells; also called Ramos cells expressing human CD40
Kind of assay: flow cytometry on Ramos cells. A general note: In flow cytometry, cells or beads pass a laser one at a time.

Assay [2] concerns the target T2, CD40mut2 (mutant CD40-FC fusion protein) (UniProt P25942 21-193, limits assumed).
T2 construct: Human CD40 implied
Kind of assay: ELISA on mutant CD40-FC fusion protein. Background: An ELISA detects its analyte on a solid surface through an enzyme-linked reagent.

For assay [3], the target named is T3, 20th of the 82 13-mer peptides covering the extracellular region of CD40 (cysteine pairing not given here; reading uncertain).
T3 construct: also called 20th peptide
T3 peptide: Ac-CLPCGESEFLDTW-{cellulose membrane}
Description: SPOT peptide array (13-mers on cellulose membrane), Western-type detection, spot intensity by LumiImager. The procedure: (§1) The reaction thereafter was carried out based on a conventional Western analysis (see Reineke, U. et al. (2001), “Epitope mapping with synthetic peptides prepared by SPOT synthesis.” Antibody Engineering (Springer Lab Manual) Eds.: Kontermann/Dubel, 433-459, for example). In the analysis, coloring intensity of each spot was quantified using Lumilmager™ (Boehringer-Mannheim Corp.) (FIG. 1A-1, 1A-2, 1B-1 and B-2).

The target of assay [4] is T4, 21st of the 82 13-mer peptides covering the extracellular region of CD40 (reading uncertain).
T4 construct: also called 21st peptide
T4 peptide: Ac-PCGESEFLDTWNR-{cellulose membrane}
Described as above. The procedure:
as §1

The target of assay [5] is T5, 22nd of the 82 13-mer peptides covering the extracellular region of CD40 (reading uncertain).
T5 construct: also called 22nd peptide
T5 peptide: Ac-GESEFLDTWNRET-{cellulose membrane}
The assay is described as above. The procedure: as §1

Assay [6] concerns the target T6, 23rd of the 82 13-mer peptides covering the extracellular region of CD40 (reading uncertain).
T6 construct: also called 23rd peptide
T6 peptide: Ac-SEFLDTWNRETHC-{cellulose membrane}
Described as above. The procedure:
as §1

Assay [7] has as its target T7, 24th of the 82 13-mer peptides covering the extracellular region of CD40 (reading uncertain).
T7 construct: also called 24th peptide
T7 peptide: Ac-FLDTWNRETHCHQ-{cellulose membrane}
The assay is described as above. The procedure: as §1

The target in assay [8] is T8, 41st of the 82 13-mer peptides covering the extracellular region of CD40 (cysteine pairing not given here; reading uncertain).
T8 construct: also called 41st peptide
T8 peptide: Ac-TICTCEEGWHCTS-{cellulose membrane}
Described as above. The procedure:
as §1

Assay [9] addresses T1, human CD40 expressed on cells (Ramos, …). Kind of assay: cell-based or functional assay.
Assay [10] has as its target T9, 42nd of the 82 13-mer peptides covering the extracellular region of CD40 (cysteine pairing not given here; reading uncertain).
T9 construct: also called 42nd peptide
T9 peptide: Ac-CTCEEGWHCTSEA-{cellulose membrane}
Kind of assay: SPOT peptide array (13-mers on cellulose membrane), Western-type detection, spot intensity by LumiImager. The procedure: as §1

From patent US20070148163A1 (Kyowa Kirin, published 2007) come the findings set out here.

cellulose membrane = not defined here

T1 sequence (P25942 21-277): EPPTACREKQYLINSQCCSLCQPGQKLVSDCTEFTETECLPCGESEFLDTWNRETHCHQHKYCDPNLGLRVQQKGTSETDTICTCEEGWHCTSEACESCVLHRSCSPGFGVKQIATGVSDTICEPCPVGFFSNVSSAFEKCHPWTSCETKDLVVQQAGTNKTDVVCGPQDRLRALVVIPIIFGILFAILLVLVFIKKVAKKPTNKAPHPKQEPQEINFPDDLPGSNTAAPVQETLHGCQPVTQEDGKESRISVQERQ
T2 sequence (P25942 other isoform, or with tags, fused parts or gaps mutant limits assumed): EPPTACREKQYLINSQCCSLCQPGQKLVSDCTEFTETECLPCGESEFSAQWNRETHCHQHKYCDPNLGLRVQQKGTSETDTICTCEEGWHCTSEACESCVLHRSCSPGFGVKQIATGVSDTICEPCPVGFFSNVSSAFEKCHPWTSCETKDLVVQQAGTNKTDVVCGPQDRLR

B1: 4D11 antibody (original subclass IgG1) (antibody, V domains shown)
VH: QLQLQESGPGLLKPSETLSLTCTVSGGSISSPGYYGGWIRQPPGKGLEWIGSIYKSGSTYHNPSLKSRVTISVDTSKNQFSLKLSSVTAADTAVYYCTRPVVRYFGWFDPWGQGTLVTVSS
VL: AIQLTQSPSSLSASVGDRVTITCRASQGISSALAWYQQKPGKAPKLLIYDASNLESGVPSRFSGSGSGTDFTLTISSLQPEDFATYYCQQFNSYPTFGQGTKVEIK
notes: also called 4D11G1
For B1, the binding result in [1], in assay [2], in [3], in assay [4], in assay [5] and in assay [6] was “binds” in each case. Further, the binding result in assay [7] and in assay [8] was “binds” each time.

B2: 4D11G4PE (4D11 antibody, IgG4 with S228P and L235E) (antibody, V domains shown)
VH: QLQLQESGPGLLKPSETLSLTCTVSGGSISSPGYYGGWIRQPPGKGLEWIGSIYKSGSTYHNPSLKSRVTISVDTSKNQFSLKLSSVTAADTAVYYCTRPVVRYFGWFDPWGQGTLVTVSS
VL: AIQLTQSPSSLSASVGDRVTITCRASQGISSALAWYQQKPGKAPKLLIYDASNLESGVPSRFSGSGSGTDFTLTISSLQPEDFATYYCQQFNSYPTFGQGTKVEIKR
notes: also called IgG4PE; 4D11 antibody G4PE
As for B2, the binding result in assay [1] is reported as “binds”.

B3: 4D11G4P (4D11 antibody, IgG4 with S228P) (antibody, V domains shown)
VH: QLQLQESGPGLLKPSETLSLTCTVSGGSISSPGYYGGWIRQPPGKGLEWIGSIYKSGSTYHNPSLKSRVTISVDTSKNQFSLKLSSVTAADTAVYYCTRPVVRYFGWFDPWGQGTLVTVSS
VL: AIQLTQSPSSLSASVGDRVTITCRASQGISSALAWYQQKPGKAPKLLIYDASNLESGVPSRFSGSGSGTDFTLTISSLQPEDFATYYCQQFNSYPTFGQGTKVEIK
notes: Human IgG4 constant region with point mutation S228P (EU index; vector N5KG4P); also called IgG4P
B3: the binding result in assay [1] was “binds”.

B4: 4D11 antibody IgG4 (antibody, V domains shown)
VH: QLQLQESGPGLLKPSETLSLTCTVSGGSISSPGYYGGWIRQPPGKGLEWIGSIYKSGSTYHNPSLKSRVTISVDTSKNQFSLKLSSVTAADTAVYYCTRPVVRYFGWFDPWGQGTLVTVSS
VL: AIQLTQSPSSLSASVGDRVTITCRASQGISSALAWYQQKPGKAPKLLIYDASNLESGVPSRFSGSGSGTDFTLTISSLQPEDFATYYCQQFNSYPTFGQGTKVEIK
notes: Human IgG4 constant region (vector N5KG4), no point mutation; also called 4D11 IgG4
For the molecule B4, the binding result in [1] is “binds”.

B5: KM341-1-19 antibody, constant region converted into IgG1 (antibody, V domains shown)
VH: QVQLQQSGPGLVKPSQTLSLTCAISGDSVSSNSATWNWIRQSPSRDLEWLGRTYYRSKWYRDYVGSVKSRIIINPDTSNNQFSLQLNSVTPEDTAIYYCTRAQWLGGDYPYYYSMDVWGQGTTVTVSS
VL: EIVLTQSPATLSLSPGERATLSCRASQSVSSYLAWYQQKPGQAPRLLIYDASNRATGIPARFSGSGSGTDFTLTISSLEPEDFAVYYCQQRSNTFGPGTKVDIK
Turning to B5, the “CD95 expression enhancing activity in Ramos cells, reduction against IgG2” value in assay [9] is ≥ 10%.

B6: KM341-1-19 antibody, constant region converted into IgG4 (antibody, V domains shown)
VH: QVQLQQSGPGLVKPSQTLSLTCAISGDSVSSNSATWNWIRQSPSRDLEWLGRTYYRSKWYRDYVGSVKSRIIINPDTSNNQFSLQLNSVTPEDTAIYYCTRAQWLGGDYPYYYSMDVWGQGTTVTVSS
VL: EIVLTQSPATLSLSPGERATLSCRASQSVSSYLAWYQQKPGQAPRLLIYDASNRATGIPARFSGSGSGTDFTLTISSLEPEDFAVYYCQQRSNTFGPGTKVDIK
With B6, the “CD95 expression enhancing activity in Ramos cells, reduction against IgG2” value in [9] is ≥ 10%.

B7: KM341-1-19 antibody (original IgG2) (antibody)
heavy: QVQLQQSGPGLVKPSQTLSLTCAISGDSVSSNSATWNWIRQSPSRDLEWLGRTYYRSKWYRDYVGSVKSRIIINPDTSNNQFSLQLNSVTPEDTAIYYCTRAQWLGGDYPYYYSMDVWGQGTTVTVSSASTKGPSVFPLAPCSRSTSESTAALGCLVKDYFPEPVTVSWNSGALTSGVHTFPAVLQSSGLYSLSSVVTVPSSNFGTQTYTCNVDHKPSNTKVDKTVERKCCVECPPCPAPPVAGPSVFLFPPKPKDTLMISRTPEVTCVVVDVSHEDPEVQFNWYVDGVEVHNAKTKPREEQFNSTFRVVSVLTVVHQDWLNGKEYKCKVSNKGLPAPIEKTISKTKGQPREPQVYTLPPSREEMTKNQVSLTCLVKGFYPSDIAVEWESNGQPENNYKTTPPMLDSDGSFFLYSKLTVDKSRWQQGNVFSCSVMHEALHNHYTQKSLSLSPGK
VL: EIVLTQSPATLSLSPGERATLSCRASQSVSSYLAWYQQKPGQAPRLLIYDASNRATGIPARFSGSGSGTDFTLTISSLEPEDFAVYYCQQRSNTFGPGTKVDIK
notes: Human IgG2; also called original KM341-1-19 antibody
Take B7: the binding result in [8] and in assay [10] was “binds” throughout.

B8: KM341-1-19 antibody, constant region converted into IgG3 (antibody, V domains shown)
VH: QVQLQQSGPGLVKPSQTLSLTCAISGDSVSSNSATWNWIRQSPSRDLEWLGRTYYRSKWYRDYVGSVKSRIIINPDTSNNQFSLQLNSVTPEDTAIYYCTRAQWLGGDYPYYYSMDVWGQGTTVTVSS
VL: EIVLTQSPATLSLSPGERATLSCRASQSVSSYLAWYQQKPGQAPRLLIYDASNRATGIPARFSGSGSGTDFTLTISSLEPEDFAVYYCQQRSNTFGPGTKVDIK
For the molecule B8, in assay [9], the “CD95 expression enhancing activity in Ramos cells, reduction against IgG2” value was ≥ 10%.

B9: 2105 antibody, constant region converted into IgG1 (antibody, V domains shown)
VH: EVQLVESGGGLVQPGRSLRLSCAASGFTFDDYAMHWVRQAPGKGLEWVSGISWNSGSLVHADSVKGRFTISRDNAKNSLYLQMNSLRAEDTALYYCARDRLFRGVRYYGMDVWGQGTTVTVSS
VL: EIVLTQSPATLSLSPGERATLSCRASQSVSSYLAWYQQKPGQAPRLLIYDASNRATGIPARFSGSGSGTDFTLTISSLEPEDFAVYYCQQRSHWLTFGGGTKVEIK
For B9, the “CD95 expression enhancing activity in Ramos cells, reduction against IgG2” value in [9] is ≥ 10%.

B10: 2105 antibody, constant region converted into IgG3 (antibody, V domains shown)
VH: EVQLVESGGGLVQPGRSLRLSCAASGFTFDDYAMHWVRQAPGKGLEWVSGISWNSGSLVHADSVKGRFTISRDNAKNSLYLQMNSLRAEDTALYYCARDRLFRGVRYYGMDVWGQGTTVTVSS
VL: EIVLTQSPATLSLSPGERATLSCRASQSVSSYLAWYQQKPGQAPRLLIYDASNRATGIPARFSGSGSGTDFTLTISSLEPEDFAVYYCQQRSHWLTFGGGTKVEIK
In the case of B10, the “CD95 expression enhancing activity in Ramos cells, reduction against IgG2” value in assay [9] was ≥ 10%.

B11: 2105 antibody, constant region converted into IgG4 (antibody, V domains shown)
VH: EVQLVESGGGLVQPGRSLRLSCAASGFTFDDYAMHWVRQAPGKGLEWVSGISWNSGSLVHADSVKGRFTISRDNAKNSLYLQMNSLRAEDTALYYCARDRLFRGVRYYGMDVWGQGTTVTVSS
VL: EIVLTQSPATLSLSPGERATLSCRASQSVSSYLAWYQQKPGQAPRLLIYDASNRATGIPARFSGSGSGTDFTLTISSLEPEDFAVYYCQQRSHWLTFGGGTKVEIK
B11: in [9], the “CD95 expression enhancing activity in Ramos cells, reduction against IgG2” value was ≥ 10%.
